B1: Pituitary-specific positive transcription factor 1, residues 130 to 198; numbered along this chain, P28069 (parent)
chain: RELEKFANEFKVRRIKLGYTQTNVGEALAAVHGSEFSQTTICRFENLQLSFKNACKLKAILSKWLEEAE

Drawing on the Human Domainome abundance scans (Beltran et al. 2025), this text covers abundance fitness for 39 variants.

± gives the uncertainty stated by the source.

The variants in this series derive from B1. Description: abundance fitness (aPCA) (normalised: wild type 0, dead -1); higher = more abundant; growth selection in yeast, the domain comes from the species named. The conditions noted are these: Homo sapiens.
Consider RELEKFANEFKVRRIKLGYTFTNVGEALAAVHGSEFSQTTICRFENLQLSFKNACKLKAILSKWLEEAE, for which the abundance fitness is -0.932 ± 0.28.
With RELEKFANEFKVRRIKLGYTETNVGEALAAVHGSEFSQTTICRFENLQLSFKNACKLKAILSKWLEEAE, the abundance fitness is -0.549 ± 0.23.
Regarding RELEKFANEFKVRRIKLGYTITNVGEALAAVHGSEFSQTTICRFENLQLSFKNACKLKAILSKWLEEAE, the abundance fitness was -0.246 ± 0.088.
Regarding RELEKFANEFKVRRIKLGYTSTNVGEALAAVHGSEFSQTTICRFENLQLSFKNACKLKAILSKWLEEAE, the abundance fitness is -0.506 ± 0.058.
With RELEKFANEFKVRRIKLGYTPTNVGEALAAVHGSEFSQTTICRFENLQLSFKNACKLKAILSKWLEEAE, the abundance fitness was -0.275 ± 0.092.
With RELEKFANEFKVRRIKLGYTVTNVGEALAAVHGSEFSQTTICRFENLQLSFKNACKLKAILSKWLEEAE, the abundance fitness is -0.278 ± 0.064.
Turning to RELEKFANEFKVRRIKLGYTATNVGEALAAVHGSEFSQTTICRFENLQLSFKNACKLKAILSKWLEEAE, the abundance fitness was -0.16 ± 0.079.
Regarding RELEKFANEFKVRRIKLGYTTTNVGEALAAVHGSEFSQTTICRFENLQLSFKNACKLKAILSKWLEEAE, the abundance fitness was -0.028 ± 0.073.
RELEKFANEFKVRRIKLGYTYTNVGEALAAVHGSEFSQTTICRFENLQLSFKNACKLKAILSKWLEEAE: the abundance fitness is -0.325 ± 0.081.
As for RELEKFANEFKVRRIKLGYTDTNVGEALAAVHGSEFSQTTICRFENLQLSFKNACKLKAILSKWLEEAE, the abundance fitness is -0.674 ± 0.21.
As for RELEKFANEFKVRRIKLGYTMTNVGEALAAVHGSEFSQTTICRFENLQLSFKNACKLKAILSKWLEEAE, the abundance fitness is -0.394 ± 0.099.
For the variant RELEKFANEFKVRRIKLGYTNTNVGEALAAVHGSEFSQTTICRFENLQLSFKNACKLKAILSKWLEEAE, the abundance fitness is -0.766 ± 0.29.
As to RELEKFANEFKVRRIKLGYTRTNVGEALAAVHGSEFSQTTICRFENLQLSFKNACKLKAILSKWLEEAE, the abundance fitness was -0.288 ± 0.063.
Turning to RELEKFANEFKVRRIKLGYTHTNVGEALAAVHGSEFSQTTICRFENLQLSFKNACKLKAILSKWLEEAE, the abundance fitness was -0.164 ± 0.12.
As for RELEKFANEFKVRRIKLGYTGTNVGEALAAVHGSEFSQTTICRFENLQLSFKNACKLKAILSKWLEEAE, the abundance fitness is -1.07 ± 0.19.
The result for RELEKFANEFKVRRIKLGYTKTNVGEALAAVHGSEFSQTTICRFENLQLSFKNACKLKAILSKWLEEAE reads -0.702 ± 0.11; that for RELEKFANEFKVRRIKLGYTWTNVGEALAAVHGSEFSQTTICRFENLQLSFKNACKLKAILSKWLEEAE, -0.592 ± 0.13; that for RELEKFANEFKVRRIKLGYTLTNVGEALAAVHGSEFSQTTICRFENLQLSFKNACKLKAILSKWLEEAE, -0.138 ± 0.048.
Regarding RELEKFANEFKVRRIKLGYTQANVGEALAAVHGSEFSQTTICRFENLQLSFKNACKLKAILSKWLEEAE, the abundance fitness was found to be 0.357 ± 0.068.
As to RELEKFANEFKVRRIKLGYTQMNVGEALAAVHGSEFSQTTICRFENLQLSFKNACKLKAILSKWLEEAE, the abundance fitness came out at 0.08 ± 0.082.
For the variant RELEKFANEFKVRRIKLGYTQHNVGEALAAVHGSEFSQTTICRFENLQLSFKNACKLKAILSKWLEEAE, the abundance fitness is 0.041 ± 0.075.
Next, RELEKFANEFKVRRIKLGYTQNNVGEALAAVHGSEFSQTTICRFENLQLSFKNACKLKAILSKWLEEAE: -0.063 ± 0.097; RELEKFANEFKVRRIKLGYTQCNVGEALAAVHGSEFSQTTICRFENLQLSFKNACKLKAILSKWLEEAE: -0.108 ± 0.079; RELEKFANEFKVRRIKLGYTQVNVGEALAAVHGSEFSQTTICRFENLQLSFKNACKLKAILSKWLEEAE: -0.328 ± 0.11.
As for RELEKFANEFKVRRIKLGYTQENVGEALAAVHGSEFSQTTICRFENLQLSFKNACKLKAILSKWLEEAE, the abundance fitness came to 0.491 ± 0.13.
RELEKFANEFKVRRIKLGYTQWNVGEALAAVHGSEFSQTTICRFENLQLSFKNACKLKAILSKWLEEAE: the abundance fitness came out at 0.18 ± 0.16.
Regarding RELEKFANEFKVRRIKLGYTQGNVGEALAAVHGSEFSQTTICRFENLQLSFKNACKLKAILSKWLEEAE, the abundance fitness was -0.052 ± 0.1.
In the case of RELEKFANEFKVRRIKLGYTQINVGEALAAVHGSEFSQTTICRFENLQLSFKNACKLKAILSKWLEEAE, the abundance fitness was -0.525 ± 0.11.
Take RELEKFANEFKVRRIKLGYTQYNVGEALAAVHGSEFSQTTICRFENLQLSFKNACKLKAILSKWLEEAE: the abundance fitness was -0.392 ± 0.2.
For the variant RELEKFANEFKVRRIKLGYTQPNVGEALAAVHGSEFSQTTICRFENLQLSFKNACKLKAILSKWLEEAE, the abundance fitness is -0.573 ± 0.45.
On to RELEKFANEFKVRRIKLGYTQLNVGEALAAVHGSEFSQTTICRFENLQLSFKNACKLKAILSKWLEEAE, for which the abundance fitness is -0.156 ± 0.062.
On to RELEKFANEFKVRRIKLGYTQQNVGEALAAVHGSEFSQTTICRFENLQLSFKNACKLKAILSKWLEEAE, for which the abundance fitness is 0.209 ± 0.1.
As to RELEKFANEFKVRRIKLGYTQKNVGEALAAVHGSEFSQTTICRFENLQLSFKNACKLKAILSKWLEEAE, the abundance fitness was found to be 0.267 ± 0.095.
On to RELEKFANEFKVRRIKLGYTQSNVGEALAAVHGSEFSQTTICRFENLQLSFKNACKLKAILSKWLEEAE, for which the abundance fitness is 0.106 ± 0.055.
As for RELEKFANEFKVRRIKLGYTQTNGGEALAAVHGSEFSQTTICRFENLQLSFKNACKLKAILSKWLEEAE, the abundance fitness is -0.753 ± 0.18.
As for RELEKFANEFKVRRIKLGYTQTNIGEALAAVHGSEFSQTTICRFENLQLSFKNACKLKAILSKWLEEAE, the abundance fitness is -0.545 ± 0.074.
Regarding RELEKFANEFKVRRIKLGYTQTNLGEALAAVHGSEFSQTTICRFENLQLSFKNACKLKAILSKWLEEAE, the abundance fitness was -0.361 ± 0.074.
As for RELEKFANEFKVRRIKLGYTQTNFGEALAAVHGSEFSQTTICRFENLQLSFKNACKLKAILSKWLEEAE, the abundance fitness is -0.92 ± 0.22.
The result for RELEKFANEFKVRRIKLGYTQTNCGEALAAVHGSEFSQTTICRFENLQLSFKNACKLKAILSKWLEEAE reads -0.337 ± 0.18.
